Experimental data: the supplement of paper PMC9112550, “Optimization of the antimicrobial peptide Bac7 by deep mutational scanning” (BMC Biology, 2022)

Test system: Escherichia coli TOP10
Experiment: shrunken log2 fold change of peptide-encoding DNA abundance (4.5 h post-induction vs induction); higher = less antimicrobial activity (less host growth inhibition)
Conditions: time post-induction: 4.5 h; library: site-saturation at positions 5, 18, 19, 20
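Also: peptides expressed intracellularly from a pBAD plasmid library in pooled LB shake-flask culture, induced with 0.3% L-arabinose, DNA abundance read by NGS, three biological replicates, DESeq2 with apeglm shrinkage.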

Sequence: RRIRQRPPRLPRPRPRPHHVPRP
- shrunken log2 fold change: -0.0277

Sequence: RRIRPRPPRLPRPRPRPGMMPRP
- shrunken log2 fold change: -0.111

Sequence: RRIRYRPPRLPRPRPRPAGSPRP
- shrunken log2 fold change: 0.0105

Sequence: RRIRWRPPRLPRPRPRPTKVPRP
- shrunken log2 fold change: -0.0596

Sequence: RRIRDRPPRLPRPRPRPITWPRP
- shrunken log2 fold change: 0.098

Sequence: RRIRPRPPRLPRPRPRPWTHPRP
- shrunken log2 fold change: -0.0188

Sequence: RRIRVRPPRLPRPRPRPNYGPRP
- shrunken log2 fold change: -0.387

Sequence: RRIRGRPPRLPRPRPRPLYNPRP
- shrunken log2 fold change: -0.247

Sequence: RRIRERPPRLPRPRPRPAVAPRP
- shrunken log2 fold change: 0.0153

Sequence: RRIRFRPPRLPRPRPRPMACPRP
- shrunken log2 fold change: -0.00146

Sequence: RRIRVRPPRLPRPRPRPVQNPRP
- shrunken log2 fold change: -0.029

Sequence: RRIRHRPPRLPRPRPRPEPEPRP
- shrunken log2 fold change: 0.241

Sequence: RRIRGRPPRLPRPRPRPSTCPRP
- shrunken log2 fold change: 0.18

Sequence: RRIRTRPPRLPRPRPRPATWPRP
- shrunken log2 fold change: 0.164

Sequence: RRIRIRPPRLPRPRPRPHPWPRP
- shrunken log2 fold change: -0.319

Sequence: RRIRQRPPRLPRPRPRPYHLPRP
- shrunken log2 fold change: -0.00174

Sequence: RRIRSRPPRLPRPRPRPWVRPRP
- shrunken log2 fold change: 0.0976

Sequence: RRIRYRPPRLPRPRPRPDNYPRP
- shrunken log2 fold change: -0.175

Sequence: RRIRARPPRLPRPRPRPICLPRP
- shrunken log2 fold change: 0.425

Sequence: RRIRSRPPRLPRPRPRPNNNPRP
- shrunken log2 fold change: -0.604

Sequence: RRIRYRPPRLPRPRPRPDELPRP
- shrunken log2 fold change: 0.0702

Sequence: RRIRMRPPRLPRPRPRPWKKPRP
- shrunken log2 fold change: 0.234

Sequence: RRIRKRPPRLPRPRPRPRSFPRP
- shrunken log2 fold change: -0.0333

Sequence: RRIRPRPPRLPRPRPRPMCLPRP
- shrunken log2 fold change: -0.0489

Sequence: RRIRYRPPRLPRPRPRPEHFPRP
- shrunken log2 fold change: -0.0545

Sequence: RRIRMRPPRLPRPRPRPKPRPRP
- shrunken log2 fold change: 1.63

Sequence: RRIRIRPPRLPRPRPRPVWLPRP
- shrunken log2 fold change: 0.0726

Sequence: RRIRCRPPRLPRPRPRPQMKPRP
- shrunken log2 fold change: -0.514

Sequence: RRIRTRPPRLPRPRPRPQAAPRP
- shrunken log2 fold change: -0.0432

Sequence: RRIRDRPPRLPRPRPRPTWSPRP
- shrunken log2 fold change: 0.235

Sequence: RRIRRRPPRLPRPRPRPVCVPRP
- shrunken log2 fold change: 0.359

Sequence: RRIRMRPPRLPRPRPRPQAVPRP
- shrunken log2 fold change: 0.442

Sequence: RRIRNRPPRLPRPRPRPLVRPRP
- shrunken log2 fold change: -0.372

Sequence: RRIRHRPPRLPRPRPRPHMNPRP
- shrunken log2 fold change: -0.491

Sequence: RRIRIRPPRLPRPRPRPAPLPRP
- shrunken log2 fold change: 0.276

Sequence: RRIRSRPPRLPRPRPRPEKIPRP
- shrunken log2 fold change: -0.0469

Sequence: RRIRHRPPRLPRPRPRPGPVPRP
- shrunken log2 fold change: 0.26

Sequence: RRIRLRPPRLPRPRPRPSNYPRP
- shrunken log2 fold change: -0.53

Sequence: RRIRYRPPRLPRPRPRPDVCPRP
- shrunken log2 fold change: -0.124

Sequence: RRIRARPPRLPRPRPRPRKHPRP
- shrunken log2 fold change: 0.146

Sequence: RRIRSRPPRLPRPRPRPDHTPRP
- shrunken log2 fold change: -0.407

Sequence: RRIRFRPPRLPRPRPRPVHTPRP
- shrunken log2 fold change: -0.0075

Sequence: RRIRRRPPRLPRPRPRPMDDPRP
- shrunken log2 fold change: 0.211

Sequence: RRIRCRPPRLPRPRPRPEFLPRP
- shrunken log2 fold change: -0.091

Sequence: RRIRDRPPRLPRPRPRPGARPRP
- shrunken log2 fold change: 0.863

Sequence: RRIRSRPPRLPRPRPRPALIPRP
- shrunken log2 fold change: 0.0414

Sequence: RRIRPRPPRLPRPRPRPKPMPRP
- shrunken log2 fold change: 0.218

Sequence: RRIRTRPPRLPRPRPRPYRTPRP
- shrunken log2 fold change: 0.0638

Sequence: RRIRQRPPRLPRPRPRPHLIPRP
- shrunken log2 fold change: -0.0982

Sequence: RRIRIRPPRLPRPRPRPEADPRP
- shrunken log2 fold change: 0.196

Sequence: RRIRHRPPRLPRPRPRPPEDPRP
- shrunken log2 fold change: 0.314

Sequence: RRIRRRPPRLPRPRPRPQRPPRP
- shrunken log2 fold change: 0.391

Sequence: RRIRFRPPRLPRPRPRPTWMPRP
- shrunken log2 fold change: 0.611

Sequence: RRIRVRPPRLPRPRPRPYNPPRP
- shrunken log2 fold change: -0.492

Sequence: RRIRVRPPRLPRPRPRPWTIPRP
- shrunken log2 fold change: -0.281

Sequence: RRIRTRPPRLPRPRPRPWNQPRP
- shrunken log2 fold change: -0.543

Sequence: RRIRQRPPRLPRPRPRPSPQPRP
- shrunken log2 fold change: 0.548

Sequence: RRIRMRPPRLPRPRPRPIHSPRP
- shrunken log2 fold change: -0.01

Sequence: RRIRRRPPRLPRPRPRPRKKPRP
- shrunken log2 fold change: 0.207

Sequence: RRIRSRPPRLPRPRPRPHRNPRP
- shrunken log2 fold change: -0.489

Sequence: RRIRGRPPRLPRPRPRPFMEPRP
- shrunken log2 fold change: -0.114

Sequence: RRIRWRPPRLPRPRPRPWRTPRP
- shrunken log2 fold change: 0.0595

Sequence: RRIRVRPPRLPRPRPRPWFLPRP
- shrunken log2 fold change: -0.386

Sequence: RRIRHRPPRLPRPRPRPESQPRP
- shrunken log2 fold change: -0.173

Sequence: RRIRIRPPRLPRPRPRPCVEPRP
- shrunken log2 fold change: -0.0421

Sequence: RRIRWRPPRLPRPRPRPFQPPRP
- shrunken log2 fold change: -0.0697

Sequence: RRIRTRPPRLPRPRPRPEKCPRP
- shrunken log2 fold change: 0.0324

Sequence: RRIRPRPPRLPRPRPRPYVRPRP
- shrunken log2 fold change: -0.61

Sequence: RRIRHRPPRLPRPRPRPHNTPRP
- shrunken log2 fold change: -0.709

Sequence: RRIRERPPRLPRPRPRPAGVPRP
- shrunken log2 fold change: 0.157

Sequence: RRIRFRPPRLPRPRPRPYPLPRP
- shrunken log2 fold change: -0.604

Sequence: RRIRSRPPRLPRPRPRPAPNPRP
- shrunken log2 fold change: 0.329

Sequence: RRIRARPPRLPRPRPRPTCDPRP
- shrunken log2 fold change: 0.534

Sequence: RRIRNRPPRLPRPRPRPVMGPRP
- shrunken log2 fold change: 0.147

Sequence: RRIRRRPPRLPRPRPRPYFRPRP
- shrunken log2 fold change: -0.203

Sequence: RRIRIRPPRLPRPRPRPEDEPRP
- shrunken log2 fold change: 0.0112

Sequence: RRIRTRPPRLPRPRPRPQWMPRP
- shrunken log2 fold change: -0.291

Sequence: RRIRPRPPRLPRPRPRPDDVPRP
- shrunken log2 fold change: -0.0212

Sequence: RRIRVRPPRLPRPRPRPQCFPRP
- shrunken log2 fold change: 0.00325

Sequence: RRIRIRPPRLPRPRPRPWVAPRP
- shrunken log2 fold change: -0.00986

Sequence: RRIRPRPPRLPRPRPRPWKYPRP
- shrunken log2 fold change: -0.269

Sequence: RRIRWRPPRLPRPRPRPMAHPRP
- shrunken log2 fold change: 0.0444

Sequence: RRIRIRPPRLPRPRPRPFCWPRP
- shrunken log2 fold change: -0.0029

Sequence: RRIRSRPPRLPRPRPRPNRLPRP
- shrunken log2 fold change: -0.205

Sequence: RRIRPRPPRLPRPRPRPSVNPRP
- shrunken log2 fold change: -0.44

Sequence: RRIRRRPPRLPRPRPRPGTRPRP
- shrunken log2 fold change: 0.117

Sequence: RRIRLRPPRLPRPRPRPLCMPRP
- shrunken log2 fold change: -0.467

Sequence: RRIRERPPRLPRPRPRPNDSPRP
- shrunken log2 fold change: -0.0224

Sequence: RRIRDRPPRLPRPRPRPMVTPRP
- shrunken log2 fold change: 0.769

Sequence: RRIRERPPRLPRPRPRPLVPPRP
- shrunken log2 fold change: -0.182

Sequence: RRIRFRPPRLPRPRPRPFCLPRP
- shrunken log2 fold change: -0.467

Sequence: RRIRARPPRLPRPRPRPATIPRP
- shrunken log2 fold change: 0.496

Sequence: RRIRQRPPRLPRPRPRPAAHPRP
- shrunken log2 fold change: 0.179

Sequence: RRIRGRPPRLPRPRPRPRCDPRP
- shrunken log2 fold change: 0.629

Sequence: RRIRARPPRLPRPRPRPHQDPRP
- shrunken log2 fold change: -0.126

Sequence: RRIRIRPPRLPRPRPRPRFFPRP
- shrunken log2 fold change: -0.123

Sequence: RRIRPRPPRLPRPRPRPQILPRP
- shrunken log2 fold change: -0.172

Sequence: RRIRTRPPRLPRPRPRPIPKPRP
- shrunken log2 fold change: 0.103

Sequence: RRIRTRPPRLPRPRPRPSNMPRP
- shrunken log2 fold change: -0.851

Sequence: RRIRDRPPRLPRPRPRPNEWPRP
- shrunken log2 fold change: -0.00174

Sequence: RRIRHRPPRLPRPRPRPFVPPRP
- shrunken log2 fold change: -0.455

Sequence: RRIRSRPPRLPRPRPRPPKFPRP
- shrunken log2 fold change: -0.479

Sequence: RRIRNRPPRLPRPRPRPIKNPRP
- shrunken log2 fold change: -0.108

Sequence: RRIRCRPPRLPRPRPRPETCPRP
- shrunken log2 fold change: 0.0181

Sequence: RRIRQRPPRLPRPRPRPCPHPRP
- shrunken log2 fold change: -0.141

Sequence: RRIRSRPPRLPRPRPRPWFRPRP
- shrunken log2 fold change: 0.212

Sequence: RRIRTRPPRLPRPRPRPAFGPRP
- shrunken log2 fold change: 0.155

Sequence: RRIRDRPPRLPRPRPRPQIKPRP
- shrunken log2 fold change: 0.0877

Sequence: RRIRQRPPRLPRPRPRPPHYPRP
- shrunken log2 fold change: 0.37

Sequence: RRIRRRPPRLPRPRPRPIAGPRP
- shrunken log2 fold change: -0.12

Sequence: RRIRDRPPRLPRPRPRPALWPRP
- shrunken log2 fold change: 1.05

Sequence: RRIRRRPPRLPRPRPRPRTCPRP
- shrunken log2 fold change: 0.477

Sequence: RRIRVRPPRLPRPRPRPNGIPRP
- shrunken log2 fold change: -0.161

Sequence: RRIRGRPPRLPRPRPRPNYYPRP
- shrunken log2 fold change: -0.254

Sequence: RRIRRRPPRLPRPRPRPQQWPRP
- shrunken log2 fold change: 0.0704

Sequence: RRIRYRPPRLPRPRPRPLRAPRP
- shrunken log2 fold change: 0.669

Sequence: RRIRNRPPRLPRPRPRPVDWPRP
- shrunken log2 fold change: 0.218

Sequence: RRIRMRPPRLPRPRPRPCFKPRP
- shrunken log2 fold change: 0.145

Sequence: RRIRDRPPRLPRPRPRPGSIPRP
- shrunken log2 fold change: 0.0264

Sequence: RRIRYRPPRLPRPRPRPGKQPRP
- shrunken log2 fold change: -0.0708

Sequence: RRIRTRPPRLPRPRPRPFFYPRP
- shrunken log2 fold change: -0.345

Sequence: RRIRNRPPRLPRPRPRPTFSPRP
- shrunken log2 fold change: -0.269

Sequence: RRIRSRPPRLPRPRPRPEMLPRP
- shrunken log2 fold change: 0.536

Sequence: RRIRYRPPRLPRPRPRPDKQPRP
- shrunken log2 fold change: 0.0233

Sequence: RRIRGRPPRLPRPRPRPKAWPRP
- shrunken log2 fold change: 0.922

Sequence: RRIRQRPPRLPRPRPRPRIAPRP
- shrunken log2 fold change: 0.111

Sequence: RRIRGRPPRLPRPRPRPETVPRP
- shrunken log2 fold change: 0.431

Sequence: RRIRPRPPRLPRPRPRPIFMPRP
- shrunken log2 fold change: -0.0036

Sequence: RRIRERPPRLPRPRPRPNRYPRP
- shrunken log2 fold change: -0.0565

Sequence: RRIRKRPPRLPRPRPRPDEVPRP
- shrunken log2 fold change: 1.1

Sequence: RRIRDRPPRLPRPRPRPPNWPRP
- shrunken log2 fold change: 0.28

Sequence: RRIRIRPPRLPRPRPRPIGNPRP
- shrunken log2 fold change: -0.104

Sequence: RRIRYRPPRLPRPRPRPVPRPRP
- shrunken log2 fold change: 0.204

Sequence: RRIRWRPPRLPRPRPRPWAAPRP
- shrunken log2 fold change: 0.351

Sequence: RRIRGRPPRLPRPRPRPDGLPRP
- shrunken log2 fold change: 0.053

Sequence: RRIRFRPPRLPRPRPRPQTAPRP
- shrunken log2 fold change: -0.337

Sequence: RRIRKRPPRLPRPRPRPIFEPRP
- shrunken log2 fold change: 0.381

Sequence: RRIRFRPPRLPRPRPRPTWHPRP
- shrunken log2 fold change: -0.0992

Sequence: RRIRYRPPRLPRPRPRPVNDPRP
- shrunken log2 fold change: -0.24

Sequence: RRIRWRPPRLPRPRPRPKTAPRP
- shrunken log2 fold change: 0.203

Sequence: RRIRHRPPRLPRPRPRPKSAPRP
- shrunken log2 fold change: -0.0502

Sequence: RRIRNRPPRLPRPRPRPCIDPRP
- shrunken log2 fold change: 0.027

Sequence: RRIRSRPPRLPRPRPRPNDDPRP
- shrunken log2 fold change: 0.0402

Sequence: RRIRRRPPRLPRPRPRPAMDPRP
- shrunken log2 fold change: 0.0975

Sequence: RRIRIRPPRLPRPRPRPHTQPRP
- shrunken log2 fold change: -0.124

Sequence: RRIRSRPPRLPRPRPRPMPWPRP
- shrunken log2 fold change: -0.039

Sequence: RRIRARPPRLPRPRPRPMTCPRP
- shrunken log2 fold change: -0.29

Sequence: RRIRVRPPRLPRPRPRPILKPRP
- shrunken log2 fold change: -0.203

Sequence: RRIRWRPPRLPRPRPRPLMWPRP
- shrunken log2 fold change: 0.173

Sequence: RRIRDRPPRLPRPRPRPQSRPRP
- shrunken log2 fold change: -0.123
